Laboratory results published in patent US20200149021, “SYSTEM AND METHOD FOR GENOME EDITING” (INSTITUTE OF ZOOLOGY, CHINESE ACADEMY OF SCIENCES, published 2020).

Assays:
PrCpf1 = molecular target: T1, PrCpf1 (Pseudobutyrivibrio ruminis); assay: cell_activity; PAM TTTC; (T)TTN; T7EI; settings: tags: HA (2A-eGFP vector)
T1 chain: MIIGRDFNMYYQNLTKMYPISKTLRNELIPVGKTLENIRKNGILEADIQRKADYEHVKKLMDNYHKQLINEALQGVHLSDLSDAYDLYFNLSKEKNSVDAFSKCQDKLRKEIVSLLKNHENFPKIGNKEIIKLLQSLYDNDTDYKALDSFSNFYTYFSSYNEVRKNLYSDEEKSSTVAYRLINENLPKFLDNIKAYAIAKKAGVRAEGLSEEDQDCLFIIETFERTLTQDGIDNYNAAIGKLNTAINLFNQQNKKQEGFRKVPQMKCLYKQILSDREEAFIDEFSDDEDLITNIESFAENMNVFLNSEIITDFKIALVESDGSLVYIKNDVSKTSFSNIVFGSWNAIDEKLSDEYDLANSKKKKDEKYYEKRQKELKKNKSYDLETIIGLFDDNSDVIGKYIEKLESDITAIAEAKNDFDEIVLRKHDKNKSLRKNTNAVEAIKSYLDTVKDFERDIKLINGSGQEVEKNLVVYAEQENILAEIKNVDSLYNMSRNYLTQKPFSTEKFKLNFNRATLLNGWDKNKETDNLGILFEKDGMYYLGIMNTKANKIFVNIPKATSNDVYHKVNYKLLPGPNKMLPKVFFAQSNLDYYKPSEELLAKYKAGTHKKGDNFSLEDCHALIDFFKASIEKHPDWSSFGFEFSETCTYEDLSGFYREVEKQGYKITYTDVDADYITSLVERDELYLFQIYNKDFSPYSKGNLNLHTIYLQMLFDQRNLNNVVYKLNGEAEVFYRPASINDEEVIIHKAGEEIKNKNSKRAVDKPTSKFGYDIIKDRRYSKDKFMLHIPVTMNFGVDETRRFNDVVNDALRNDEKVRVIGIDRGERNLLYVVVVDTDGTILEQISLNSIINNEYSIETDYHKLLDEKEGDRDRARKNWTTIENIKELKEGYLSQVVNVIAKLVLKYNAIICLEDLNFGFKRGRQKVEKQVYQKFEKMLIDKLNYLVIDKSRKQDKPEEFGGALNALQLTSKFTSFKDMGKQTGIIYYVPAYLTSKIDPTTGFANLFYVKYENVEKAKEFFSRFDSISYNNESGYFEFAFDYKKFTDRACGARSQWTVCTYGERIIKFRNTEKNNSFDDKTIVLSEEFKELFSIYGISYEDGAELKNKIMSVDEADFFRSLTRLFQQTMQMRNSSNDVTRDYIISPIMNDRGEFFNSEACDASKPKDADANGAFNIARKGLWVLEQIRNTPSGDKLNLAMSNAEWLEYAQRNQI
Method: (§1) GFP-positive cells were sorted by FACS, lysed with Buffer L+ 1/100V Protease K (Biotool) at 55° C. for 30 min, inactivated at 95° C. for 5 min, and directly used for PCR detection. Appropriate primers were designed near the Cpf1 targeting site, and the amplified product was purified using DNA Clean & Concentrator™-5 kit (ZYMO Research). 200 ng of purified PCR product was added into 1 uL of NEBuffer2 (NEB) and diluted to 10 uL with ddH₂O. Then, heterodimers were formed by re-annealing according to the previously reported method (Li, W., et al., Simultaneous generation and germline transmission of multiple gene mutations in rat using CRISPR-Cas systems. Nat Biotechnol, 2013. 31(8): p. 684-6). The reannealed product was added with 0.3 uL of T7EI endnucelease and 1/10 V NEBuffer2 (NEB), and digested at 37° C. for 1 h 30 min. Genotype analysis was performed by 3% TAE-Gel electrophoresis. Indels were calculated according to the method reported in the previous article (Cong, L., et al., Multiplex genome engineering using CRISPR/Cas systems. Science, 2013. 339(6121): p. 819-23).
(§2) The cells were transfected with Cpf1, crRNA31, and crRNA2 plasmids, and it was confirmed by PCR and T7EI analysis that crRNA31 can increase the editing efficiency of five Cpf1s of ArCpf1, BsCpf1, HkCpf1, PrCpf1, and PxCpf1 at the site MeCP2-4 by two folds (FIG. 13B).

PxCpf1 = molecular target: T2, PxCpf1 (Pseudobutyrivibrio xylanivorans); assay: cell_activity; PAM TTTC; (T)TTN; T7EI; settings: tags: HA (2A-eGFP vector)
T2 chain: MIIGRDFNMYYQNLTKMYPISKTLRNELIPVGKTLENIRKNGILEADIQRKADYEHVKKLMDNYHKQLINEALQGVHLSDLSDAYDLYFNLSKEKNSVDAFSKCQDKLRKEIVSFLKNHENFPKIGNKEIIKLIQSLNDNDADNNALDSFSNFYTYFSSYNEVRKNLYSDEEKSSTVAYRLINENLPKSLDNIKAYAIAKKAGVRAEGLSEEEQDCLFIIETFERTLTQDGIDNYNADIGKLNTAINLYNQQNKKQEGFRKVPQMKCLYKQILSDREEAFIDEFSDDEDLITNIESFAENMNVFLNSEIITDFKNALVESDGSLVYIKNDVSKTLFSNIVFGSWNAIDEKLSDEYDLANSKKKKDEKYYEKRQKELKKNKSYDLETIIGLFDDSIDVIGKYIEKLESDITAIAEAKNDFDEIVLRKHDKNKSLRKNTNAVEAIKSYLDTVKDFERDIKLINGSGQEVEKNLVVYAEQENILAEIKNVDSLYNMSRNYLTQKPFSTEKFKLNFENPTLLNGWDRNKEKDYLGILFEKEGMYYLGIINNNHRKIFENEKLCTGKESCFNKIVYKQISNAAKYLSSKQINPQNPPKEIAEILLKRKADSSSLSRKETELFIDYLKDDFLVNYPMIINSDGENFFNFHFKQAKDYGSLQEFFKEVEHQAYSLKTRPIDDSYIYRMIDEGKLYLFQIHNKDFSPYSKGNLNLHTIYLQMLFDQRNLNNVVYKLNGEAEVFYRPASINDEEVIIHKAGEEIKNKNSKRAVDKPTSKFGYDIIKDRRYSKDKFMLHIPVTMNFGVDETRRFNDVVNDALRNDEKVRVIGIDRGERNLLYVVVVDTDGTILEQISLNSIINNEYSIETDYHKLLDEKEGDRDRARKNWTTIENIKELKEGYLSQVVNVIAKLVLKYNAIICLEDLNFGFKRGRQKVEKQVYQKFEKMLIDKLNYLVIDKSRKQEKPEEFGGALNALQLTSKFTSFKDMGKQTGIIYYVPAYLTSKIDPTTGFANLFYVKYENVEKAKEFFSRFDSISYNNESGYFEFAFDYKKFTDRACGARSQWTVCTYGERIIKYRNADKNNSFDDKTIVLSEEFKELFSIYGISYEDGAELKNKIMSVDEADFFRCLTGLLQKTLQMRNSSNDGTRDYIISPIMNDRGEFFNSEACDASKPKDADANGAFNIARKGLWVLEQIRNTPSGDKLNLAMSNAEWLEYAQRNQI
Method: as §1, §2

B1: crRNA31 MeCP2 site 4 ; Mouse MeCP2 site 4 (ssRNA ; dsDNA)
RNA: AUUUCUACUAUGGUAGAUGUGUCCAACCUUCAGGCAAGGUG
DNA 1: TTTCGTGTCCAACCTTCAGGCAAGGTG
DNA 2: CACCTTGCCTGAAGGTTGGACACGAAA
B1 was tested, and the editing efficiency (PrCpf1) was roughly 2 fold vs crRNA2 and the editing efficiency (PxCpf1) was roughly 2 fold vs crRNA2.
